Test results reported in PMC3123459.

Target: Acyl-CoA dehydrogenase from Mycobacterium thermoresistibile (Mycobacterium thermoresistibile)
Assay: crystal structure

Acyl-CoA dehydrogenase from Mycobacterium thermoresistibile (enzyme)
stoichiometry N: 4
